Laboratory results reported in US20150344570A1 (published 2015).

T1: FcγRIIb extracellular domain with C-terminal His tag (human, UniProt P31994 43-217)
T1 construct: extracellular domain; also called 2b; FcgRIIb; not shown: His tag at the C terminus
T1 sequence (looked up): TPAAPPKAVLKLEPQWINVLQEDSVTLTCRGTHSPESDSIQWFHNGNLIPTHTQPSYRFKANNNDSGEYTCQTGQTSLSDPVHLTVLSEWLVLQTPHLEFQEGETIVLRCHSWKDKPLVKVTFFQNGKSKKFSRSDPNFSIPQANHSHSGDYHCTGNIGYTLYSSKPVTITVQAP

T2: FcγRIIa H (human, UniProt P12318 34-217)
T2 construct: extracellular domain; also called FcgRIIa H; FcγRIIa type H
T2 sequence (looked up): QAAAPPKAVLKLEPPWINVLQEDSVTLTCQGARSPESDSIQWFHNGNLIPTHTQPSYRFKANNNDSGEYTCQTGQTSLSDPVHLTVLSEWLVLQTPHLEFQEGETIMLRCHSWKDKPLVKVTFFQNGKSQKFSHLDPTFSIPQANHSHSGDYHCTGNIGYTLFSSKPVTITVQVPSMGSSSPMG

T3: FcγRIIb (human, UniProt P31994 43-217)
T3 construct: extracellular domain; also called FcgRIIb; 2b
T3 sequence (looked up): T1 sequence (looked up)

B1: GpH7-A5/GpH7-B3 variant G236_10E/GpL16-k0 (antibody, human IgG1, kappa)
heavy 1: not shown
heavy 2: not shown
light: DIVMTQSPLSLPVTPGEPASISCQASESLVHSNRNTYLHWYLQKPGQSPQLLIYKVSNRFSGVPDRFSGSGSGTDFTLKISRVEAEDVGVYYCSQNTHVPPTFGQGTKVEIERTVAAPSVFIFPPSDEQLKSGTASVVCLLNNFYPREAKVQWKVDNALQSGNSQESVTEQDSKDSTYSLSSTLTLSKADYEKHKVYACEVTHQGLSSPVTKSFNRGEC
notes: IgG1, anti-glypican-3; also called He Ab
B2: GpH7-A5/GpH7-B3 variant G237_09D/GpL16-k0 (antibody, human IgG1, kappa)
heavy 1: not shown
heavy 2: not shown
light: B1 light
notes: Heterodimerized antibody, alteration in one H chain only; also called He Ab G237D
B3: GpH7-A5/GpH7-B3 variant G237_14T/GpL16-k0 (antibody, human IgG1, kappa)
heavy 1: not shown
heavy 2: not shown
light: B1 light
notes: Heterodimerized antibody, alteration in one H chain only; also called He Ab G237T
B4: GpH7-A5/GpH7-B3 variant G237_15Y/GpL16-k0 (antibody, human IgG1, kappa)
heavy 1: not shown
heavy 2: not shown
light: B1 light
notes: Heterodimerized antibody, alteration in one H chain only; also called He Ab G237Y
B5: GpH7-A5/GpH7-B3 variant G237_18N/GpL16-k0 (antibody, human IgG1, kappa)
heavy 1: not shown
heavy 2: not shown
light: B1 light
notes: Heterodimerized antibody, alteration in one H chain only; also called He Ab G237N
B6: GpH7-A5/GpH7-B3 variant L235_20W/GpL16-k0 (antibody, human IgG1, kappa)
heavy 1: not shown
heavy 2: not shown
light: B1 light
notes: Heterodimerized antibody, alteration in one H chain only; also called He Ab L235W
B7: GpH7-A5/GpH7-B3 variant P238_03V/GpL16-k0 (antibody, human IgG1, kappa)
heavy 1: not shown
heavy 2: not shown
light: B1 light
notes: Heterodimerized antibody, alteration in one H chain only; also called He Ab P238V
B8: GpH7-A5/GpH7-B3 variant L235_09D/GpL16-k0 (antibody, human IgG1, kappa)
heavy 1: not shown
heavy 2: not shown
light: B1 light
notes: Heterodimerized antibody, alteration in one H chain only; also called He Ab L235D
B9: GpH7-A5/GpH7-B3 variant P238_01G/GpL16-k0 (antibody, human IgG1, kappa)
heavy 1: not shown
heavy 2: not shown
light: B1 light
notes: Heterodimerized antibody, alteration in one H chain only; also called He Ab P238G
B10: GpH7-A5/GpH7-B3 variant L234_09D/GpL16-k0 (antibody, human IgG1, kappa)
heavy 1: not shown
heavy 2: not shown
light: B1 light
notes: Heterodimerized antibody, alteration in one H chain only; also called He Ab L234D
B11: GpH7-A5/GpH7-B3 variant P238_04F/GpL16-k0 (antibody, human IgG1, kappa)
heavy 1: not shown
heavy 2: not shown
light: B1 light
notes: Heterodimerized antibody, alteration in one H chain only; also called He Ab P238F
B12: GpH7-A5/GpH7-B3 variant G237_10E/GpL16-k0 (antibody, human IgG1, kappa)
heavy 1: not shown
heavy 2: not shown
light: B1 light
notes: Heterodimerized antibody, alteration in one H chain only; also called He Ab G237E
B13: GpH7-A5/GpH7-B3 variant P238_06M/GpL16-k0 (antibody, human IgG1, kappa)
heavy 1: not shown
heavy 2: not shown
light: B1 light
notes: Heterodimerized antibody, alteration in one H chain only; also called He Ab P238M
B14: GpH7-A5/GpH7-B3 variant G237_13S/GpL16-k0 (antibody, human IgG1, kappa)
heavy 1: not shown
heavy 2: not shown
light: B1 light
notes: Heterodimerized antibody, alteration in one H chain only; also called He Ab G237S
B15: GpH7-A5/GpH7-B3 variant G237_20W/GpL16-k0 (antibody, human IgG1, kappa)
heavy 1: not shown
heavy 2: not shown
light: B1 light
notes: Heterodimerized antibody, alteration in one H chain only; also called He Ab G237W
B16: GpH7-A5/GpH7-B3 variant G237_16H/GpL16-k0 (antibody, human IgG1, kappa)
heavy 1: not shown
heavy 2: not shown
light: B1 light
notes: Heterodimerized antibody, alteration in one H chain only; also called He Ab G237H
B17: GpH7-A5/GpH7-B3 variant L234_10E/GpL16-k0 (antibody, human IgG1, kappa)
heavy 1: not shown
heavy 2: not shown
light: B1 light
notes: Heterodimerized antibody, alteration in one H chain only; also called He Ab L234E
B18: GpH7-A5/GpH7-B3 variant G237_19Q/GpL16-k0 (antibody, human IgG1, kappa)
heavy 1: not shown
heavy 2: not shown
light: B1 light
notes: Heterodimerized antibody, alteration in one H chain only; also called He Ab G237Q
B19: GpH7-A5/GpH7-B3 variant G237_11K/GpL16-k0 (antibody, human IgG1, kappa)
heavy 1: not shown
heavy 2: not shown
light: B1 light
notes: Heterodimerized antibody, alteration in one H chain only; also called He Ab G237K

Molecular target: T4, FcγRIIIa extracellular domain with C-terminal His tag (human, UniProt P08637 17-208)
T4 construct: extracellular domain; also called 3a; FcgRIIIa; not shown: His tag at the C terminus
T4 sequence (P08637 17-208): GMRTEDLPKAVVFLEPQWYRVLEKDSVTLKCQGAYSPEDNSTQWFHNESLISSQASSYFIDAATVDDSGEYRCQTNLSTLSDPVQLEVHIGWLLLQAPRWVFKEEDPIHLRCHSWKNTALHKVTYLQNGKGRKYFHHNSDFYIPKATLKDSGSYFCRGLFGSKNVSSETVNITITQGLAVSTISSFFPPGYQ
Test: SPR (Biacore), relative to GpH7-A5/GpH7-B3/GpL16-k0 = 100

| He/Con_3a | Binder |
| --- | --- |
| 70.7 % (control = 100) | B1 |

Molecular target: T1, FcγRIIb extracellular domain with …
Test: as above

| He/Con_2b | Binder |
| --- | --- |
| 110 % (control = 100) | B1 |

Molecular target: T4, FcγRIIIa extracellular domain with …
Test: SPR (Biacore); ratio of He/Con_3a (FcγRIIIa) to He/Con_2b (FcγRIIb)

| He_3a/2b (IIIa/IIb) | Binder |
| --- | --- |
| 0.64 | B1 |

Molecular target: T2, FcγRIIa H
Test: SPR (Biacore); He/Con_2aH divided by He/Con_2b (FcγRIIa H over FcγRIIb)

| He_2aH/2b (IIaH/IIb) [ratio] | Binder |
| --- | --- |
| 0.05 | B2 |
| 0.58 | B3 |
| 0.17 | B4 |
| 0.08 | B5 |
| 0.8 | B6 |
| 0.74 | B7 |
| 0.71 | B8 |
| 0.66 | B9 |
| 0.6 | B10 |
| 0.21 | B11 |
| 0.13 | B12 |
| 0.27 | B13 |
| 0.27 | B14 |
| 0.16 | B15 |
| 0.3 | B16 |
| 0.75 | B17 |
| 0.25 | B18 |
| 0.64 | B19 |

Molecular target: T2, FcγRIIa H
Test: SPR (Biacore), antibody captured, FcγR analyte; binding relative to GpH7-A5/GpH7-B3/GpL16-k0 = 100

| He/Con_2aH | Binder |
| --- | --- |
| 11.1 % of control | B2 |
| 31.8 % of control | B3 |
| 25.4 % of control | B4 |
| 15.2 % of control | B5 |
| 118 % of control | B6 |
| 89 % of control | B7 |
| 75.8 % of control | B8 |
| 37.3 % of control | B9 |
| 89.9 % of control | B10 |
| 65.4 % of control | B11 |
| 15.1 % of control | B12 |
| 47.6 % of control | B13 |
| 29.8 % of control | B14 |
| 31.6 % of control | B15 |
| 16.4 % of control | B16 |
| 88.3 % of control | B17 |
| 26.5 % of control | B18 |
| 5.8 % of control | B19 |

Molecular target: T3, FcγRIIb
Test: as above

| He/Con_2b | Binder |
| --- | --- |
| 223 % of control | B2 |
| 54.8 % of control | B3 |
| 152 % of control | B4 |
| 180 % of control | B5 |
| 147 % of control | B6 |
| 120 % of control | B7 |
| 106 % of control | B8 |
| 56 % of control | B9 |
| 150 % of control | B10 |
| 312 % of control | B11 |
| 114 % of control | B12 |
| 174 % of control | B13 |
| 111 % of control | B14 |
| 193 % of control | B15 |
| 55.2 % of control | B16 |
| 118 % of control | B17 |
| 108 % of control | B18 |
| 9 % of control | B19 |
